The target of one assay is HLA-B*44:02. Nature of the assay: IEDB peptide-MHC binding, purified MHC/competitive/radioactivity; filed as Kd, often an IC50 or EC50 that approximates it; ≥ and ≤ were set here for values at or beyond the usual limits of such assays.
Another assay addresses HLA-B*44:03. The assay is described as above.
A further assay addresses HLA-B*40:01. Described as above.
The next assay has as its target HLA-B*07:02. The assay is described as above.
The target of a further assay is HLA-A*32:01. The description is as above.
In another assay the target is HLA-B*08:01. The assay is described as above.
Assay [1] has as its target HLA-A*69:01. In words: IEDB peptide-MHC binding, purified MHC/direct/fluorescence; filed as Kd, often an IC50 or EC50 that approximates it; ≥ and ≤ were set here for values at or beyond the usual limits of such assays. The note with it: source organism: Yellow fever virus.
Another assay deals with HLA-B*15:01. Described as above. The note with it: source organism: Yellow fever virus.
Assay [2] concerns the target HLA-B*46:01. Described as above. The conditions noted are these: source organism: Yellow fever virus.
A further assay deals with HLA-B*27:03. In words: IEDB peptide-MHC binding, purified MHC/competitive/fluorescence; filed as Kd, often an IC50 or EC50 that approximates it; ≥ and ≤ were set here for values at or beyond the usual limits of such assays. The conditions noted are these: source organism: Homo sapiens.
The target of assay [3] is HLA-B*51:01. Described as above. The note with it: source organism: Homo sapiens.
Assay [4] deals with HLA-A*69:01. The description is as above. The conditions noted are these: source organism: Homo sapiens.
Assay [5] deals with HLA-A*26:01. Described as above. The note with it: source organism: Homo sapiens.
Assay [6] addresses HLA-B*46:01. Described as above. The note with it: source organism: Homo sapiens.
For the next assay, the target named is HLA-B*57:01. The assay is described as above. The conditions noted are these: source organism: Homo sapiens.
For assay [7], the target named is HLA-B*51:01. In words: IEDB peptide-MHC binding, purified MHC/competitive/radioactivity; filed as Kd, often an IC50 or EC50 that approximates it; ≥ and ≤ were set here for values at or beyond the usual limits of such assays. The note with it: source organism: Dengue virus 1 Brazil/97-11/1997.
The next assay has as its target HLA-A*01:01. The assay is described as above. The note with it: source organism: Mammarenavirus brazilense.
In assay [8] the target is HLA-A*26:01. The assay is described as above. The note with it: source organism: Mammarenavirus brazilense.
The next assay has as its target HLA-A*30:01. Described as above. The conditions noted are these: source organism: Mammarenavirus brazilense.
A further assay has as its target HLA-A*30:02. The description is as above. The conditions noted are these: source organism: Mammarenavirus brazilense.
Another assay addresses HLA-A*29:02. The assay is described as above. The note with it: source organism: Mammarenavirus brazilense.
[9] abbreviates: source organism: Dengue virus 1 Brazil/97-11/1997.
The mark [10] stands for this setting: source organism: Dengue virus 2 Jamaica/1409/1983.
The mark [11] stands for this setting: source organism: Dengue virus 3 Martinique/1243/1999.
[12] abbreviates: source organism: Vaccinia virus WR.
Where [13] appears, read: source organism: Dengue virus 4 Philippines/H241/1956.
[14] abbreviates: source organism: Dengue virus 1 Singapore/S275/1990.

RELKCGSGIF: the dissociation constant Kd – broadly, a measure of binding affinity in units of concentration – worked out at 54.8 nM with HLA-B*44:02 (setting [9]) and 151 nM in the assay with HLA-B*44:03 (setting [9]).

VEMGEAAGIF: the equilibrium dissociation constant (Kd) came to 1150 nM with HLA-B*40:01 (setting [10]), 39.2 nM with HLA-B*44:02 (setting [10]) and 592 nM with HLA-B*44:03 (setting [10]).

In the case of EEHNSTWHY, the dissociation constant (Kd) in the assay with HLA-B*44:02 (setting [11]) worked out at 15.3 nM; with HLA-B*44:03 (setting [11]), 68.1 nM.

Regarding LPVCAPSSA, the Kd in the assay with HLA-B*07:02 (source organism: Hepatitis B virus) worked out at 115 nM.

As to SLSAVSVHI, the Kd with HLA-A*32:01 (setting [12]) was 33.9 nM.

As for PNERRAWNFL, the Kd in the assay with HLA-A*32:01 (setting [13]) was not below 25300 nM.

Take SMFTLRHII: the figures for the Kd in the assay with HLA-A*32:01 (setting [12]) and with HLA-B*08:01 (setting [12]) were 82.8 nM and 1.81 nM, respectively.

For the sequence SAVPVDWVPT, in the assay with HLA-A*32:01 (setting [9]), the Kd was determined as 18600 nM.

Regarding EEMFKKRNL, the results for the Kd with HLA-B*40:01 (setting [11]), with HLA-B*44:02 (setting [11]) and with HLA-B*44:03 (setting [11]) were 6310 nM, 51.2 nM and 483 nM, respectively.

As for WELVDKERNL, in the assay with HLA-B*40:01 (source organism: Dengue virus 2 Peru/IQT2913/1996), the dissociation constant Kd amounted to 222 nM.

GVFPVSIPI: the dissociation constant (Kd) with HLA-A*32:01 (setting [10]) stood at 44.5 nM.

Consider KTWGKAKIV, for which the Kd with HLA-A*32:01 (setting [11]) turned out to be 1260 nM.

As for NEPEDIDCW, the figures for the Kd with HLA-B*44:02 (setting [10]) and with HLA-B*44:03 (setting [10]) were 1080 nM and 870 nM, respectively.

For the sequence SPMGKLTFF, in the assay with HLA-B*08:01 (setting [12]), the Kd came to 262 nM.

With SLGCKPLTM, the Kd with HLA-B*08:01 (setting [14]) was found to be 169 nM.

Regarding ATIWRSLSI, the Kd with HLA-A*32:01 (source organism: Vaccinia virus Copenhagen) was found to be 1.89 nM.

Regarding KMLDPRQGL, the equilibrium dissociation constant (Kd) is not below 10000 nM in the assay with HLA-A*69:01 [1], 808 nM with HLA-B*15:01 and not below 20000 nM with HLA-B*46:01 [2].

Consider KMFTYLMES, for which the Kd with HLA-B*27:03, in the assay with HLA-B*51:01 [3], with HLA-A*69:01 [4], in the assay with HLA-A*26:01 [5], in the assay with HLA-B*46:01 [6] and with HLA-B*57:01 was not below 20000 nM throughout.

With KIWGRKSWPL, the Kd with HLA-B*08:01 (setting [14]) was 382 nM.

For the sequence SLQQRLEDL, the equilibrium dissociation constant (Kd) with HLA-B*08:01 (setting [12]) was found to be 158 nM.

For LETLLLLTLL, in the assay with HLA-B*40:01 (setting [10]), the dissociation constant (Kd) was determined as 101 nM.

For TPQDNQLAYV, the Kd stood at 14600 nM in the assay with HLA-B*51:01 [7] and 330 nM in the assay with HLA-B*07:02 (setting [9]).

Take QEEHKETWHY: the values for the Kd with HLA-B*44:02 (setting [13]) and in the assay with HLA-B*44:03 (setting [13]) were 685 nM and 422 nM, respectively.

Regarding LAAVSVSPL, the Kd in the assay with HLA-B*07:02 (setting [10]) is 125 nM.

LLSEMLNKEY: the dissociation constant Kd in the assay with HLA-A*01:01 was 446 nM; with HLA-A*32:01 (source organism: Mammarenavirus brazilense), not below 38600 nM; with HLA-A*26:01 [8], 15800 nM; in the assay with HLA-A*30:01, 10900 nM; with HLA-A*30:02, 701 nM; with HLA-A*29:02, 511 nM.

TTWALCESI: the dissociation constant (Kd) with HLA-A*32:01 (setting [9]) turned out to be 293 nM.

With NRRKRSVTM, the Kd with HLA-B*08:01 (setting [9]) amounted to 6.72 nM.

With SKKTRISDL, in the assay with HLA-B*08:01 (source organism: Cowpox virus), the Kd turned out to be 2.76 nM.

For SEGIFSPSEL, the Kd with HLA-B*40:01 (setting [14]) came to 5.6 nM; with HLA-B*44:02 (setting [14]) it was 66.3 nM; with HLA-B*44:03 (setting [14]), 77.5 nM.

On to AIKLGFKSL, for which, in the assay with HLA-B*08:01 (setting [12]), the Kd came to 41.3 nM.

For TPMLRHSIEN, in the assay with HLA-B*07:02 (setting [10]), the dissociation constant (Kd) came out at 507 nM.

For the sequence ITYPKALVF, the Kd in the assay with HLA-A*32:01 (setting [12]) worked out at 3.02 nM.

For EENVEVEIW, the Kd with HLA-B*44:02 (setting [10]) came out at 45.1 nM; with HLA-B*44:03 (setting [10]), 39.1 nM.

As for NPTTLTASL, the Kd in the assay with HLA-B*07:02 (source organism: Dengue virus 4 Dominica/814669/1981) turned out to be 57.3 nM.

For the origin of these results see the Immune Epitope Database (IEDB).
